According to patent US20150376276A1 (Seagen, published 2015):

Assays:
human NTB-A [1] = molecular target: T1, human NTB-A (human, UniProt Q96DU3 22-332); assay: flow cytometry competition on NTB-A positive Ramos cells; competitor: AF647-labelled 11A1 at 0.0188 ug/mL; half of the partial effect, not 50% of maximum binding
T1 construct: whole, on cells; also called SLAMF6; hNTB-A
T1 sequence (looked up): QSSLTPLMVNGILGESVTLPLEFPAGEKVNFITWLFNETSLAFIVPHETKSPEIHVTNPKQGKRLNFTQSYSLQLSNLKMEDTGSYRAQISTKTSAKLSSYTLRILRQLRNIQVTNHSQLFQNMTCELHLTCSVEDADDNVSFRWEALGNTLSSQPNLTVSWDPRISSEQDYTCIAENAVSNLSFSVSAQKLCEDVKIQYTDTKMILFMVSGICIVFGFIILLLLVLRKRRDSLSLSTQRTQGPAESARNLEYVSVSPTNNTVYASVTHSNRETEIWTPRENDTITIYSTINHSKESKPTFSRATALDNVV

human NTB-A [2] = molecular target: T1, human NTB-A; assay: flow cytometry competition on NTB-A positive Ramos cells; competitor: AF647-labelled 11A1 at 0.0188 ug/mL
Text: To evaluate whether an antibody competes for specific binding to human NTB-A with a mAb comprising the VH and VL domains of the 11A1 mAb (i.e., a VH domain having the amino acid sequence as shown in residues 20-135 of SEQ ID NO:1 and a VL domain having the amino acid sequence as shown in residues 21-140 of SEQ ID NO:2), a competitive binding assay as follows is used.
This assay utilizes a “reference antibody” comprising the 11A1 murine IgG1 antibody (i.e., the 11A1 VH and VL domains in the bivalent structure of a native antibody). NTB-A positive Ramos cells are plated at 2×10⁵ cells per well in a 96 well V-bottom plate (Thermo Scientific, Rochester, N.Y.). […] The antibody solutions are incubated with cells for 1 hour on ice, protected from light. The cells are washed twice with FACs buffer and analyzed on the LSRII flow cytometer (BD BioSciences, San Jose, Calif.). Data are presented as percent of maximum binding. The sample antibody “competes with” the labeled reference antibody for specific binding to NTB-A if the sample antibody reduces the reference antibody's binding to NTB-A to levels less than 45% of maximum binding (i.e., 0 to 45%) at a concentration of 10 μg/ml of unlabeled sample antibody. […]

human NTB-A [3] = molecular target: T1, human NTB-A; assay: flow cytometry, saturation binding of Alexa Fluor 647-labelled antibody on Ramos cells
Experimental: Antigen positive Ramos cells were plated at 1×10⁵ cells per well in a 96 well V-bottom plate (Thermo Scientific, Rochester, N.Y.). Three-fold serial dilutions of 2× concentrated antibodies were prepared in FACs buffer (PBS+2% fetal bovine serum+0.02% azide) and were added to the cells in duplicate. The antibody solutions were incubated with cells for 1 hour on ice, protected from light. The cells were washed twice with FACs buffer and analyzed on the LSRII flow cytometer (BD BioSciences, San Jose, Calif.). KD values were determined with GraphPad Prism software (La Jolla, Calif.).

Molecule: NT-7 antibody (clone: NT-7 (Biolegend #317208))
- IC50 (read off the curve) (human NTB-A [1]): 100 ng/mL

B1: 26B7 murine IgG1 antibody (antibody, V domains shown)
VH: QVQLLQPGAEVVKPGTSVKLSCKASGYNFTIYWINWVKLRPGQGLEWIGDIHPGRGNTNLNEKFKTKATLTVDTSSSTAYMQLNSLAFEDSALYYCAREDEDWYFDVWGAGTTVTVSS
VL: DIQMNQSPSSLSASLGDTITITCRASQGISIWFNWYQQKSGNIPKLLIYKTSNLHTGVPPRFSGSGSGTDFTLTISSLQPEDIATYYCLQSQSYPYTFGGGTKLEIKR
notes: Murine IgG1; also called mAb 26B7
- IC50 (read off the curve) (human NTB-A [2]): ~80 ng/mL
- Kd (human NTB-A [3]): 0.16 nM
